Substrate in series [1]: O=C1O[C@H](CO)[C@H](O)[C@H]1O
In words: purified protein. It counts as biochemical, Caulobacter vibrioides. As to conditions: 100 mM HEPES/NaOH pH 7.5, 37 °C, 5 mM NAD+.

Substrate in series [2]: NC(=O)c1ccc[n+]([C@@H]2O[C@H](COP(=O)(O)OP(=O)(O)OC[C@H]3O[C@@H](n4cnc5c(N)ncnc54)[C@H](O)[C@@H]3O)[C@@H](O)[C@H]2O)c1
As to the kind of experiment: purified protein. It counts as biochemical, Caulobacter vibrioides. The note with it: 100 mM HEPES/NaOH pH 7.5, 37 °C, varied: cofactor.

Substrate in series [3]: NC(=O)c1ccc[n+]([C@@H]2O[C@H](COP(=O)(O)OP(=O)(O)OC[C@H]3O[C@@H](n4cnc5c(N)ncnc54)[C@H](O)[C@@H]3O)[C@@H](O)[C@H]2O)c1
In words: purified protein, by the assay type. More on the design: initial rate kinetics of purified recombinant enzyme, classical Michaelis-Menten fit. The text has this: The five genes of the D-xylose operon, i.e., CCNA_00862–00866, were amplified by PCR using gene-specific primers (Supplementary Table 1) and the genomic DNA of C. crescentus NA1000 as template. The PCR products were cloned into pET (Novagen) expression vectors (Supplementary Table 1) and successful cloning was confirmed by sequencing (LGC genomics, Berlin). For expression, the respective plasmids were transformed into the E. coli BL21-pRIL (DE3) or Rosetta (DE3, Stratagene) (Supplementary Table 1). Overexpression was performed in LB medium containing the appropriate antibiotic. The cells were grown at 37 °C to an OD600 of 0.6–0.7 and induced with 1 mM isopropyl-β-D-thiogalactopyranoside. After induction, the cultures were further incubated at 37 °C for 4 h or at 30 °C or at 21 °C for 18–22 h (Supplementary Table 1), respectively. Cells were collected by centrifugation (15 min, 8630 × g, 4 °C) and the pellets were stored at −70 °C. Due to the choice of the vectors, all of the C. crescentus enzymes were N-terminally histidine tagged. The recombinant L-isoleucine dioxygenase from B. thuringiensis (BtDO) contained a C-terminal 6× histidine tag[47]. […] For XLA and KDXD, the inhibition constants for D-xylonate and KGSA, respectively, had to be fitted based on the conversion data, as these enzymes are analysed in coupled enzyme assays. […]

Substrate in series [4]: NC(=O)c1ccc[n+]([C@@H]2O[C@H](COP(=O)(O)OP(=O)(O)OC[C@H]3O[C@@H](n4cnc5c(N)ncnc54)[C@H](OP(=O)(O)O)[C@@H]3O)[C@@H](O)[C@H]2O)c1
In words: purified protein. The format is biochemical, Caulobacter vibrioides. The note with it: 100 mM HEPES/NaOH pH 7.5, 37 °C, varied: cofactor.

Substrate in series [5]: O=CCCC(=O)C(=O)O
In words: purified protein. The format is biochemical, Caulobacter vibrioides. The note with it: 100 mM HEPES/NaOH pH 7.5, 37 °C, co-substrate NAD+.

Substrate in series [6]: O=CCCC(=O)O
In words: purified protein. The note with it: 100 mM HEPES/NaOH pH 7.5, 37 °C, NAD(P)+. The format is biochemical, Caulobacter vibrioides.

Substrate in series [7]: O=CCCCC=O
In words: purified protein. It counts as biochemical, Caulobacter vibrioides. As to conditions: 100 mM HEPES/NaOH pH 7.5, 37 °C, NAD(P)+.

Substrate in series [8]: O=C(O)C(=O)C[C@H](O)CO
In words: purified protein. The format is biochemical, Caulobacter vibrioides. The note with it: 100 mM HEPES/NaOH pH 7.5, 37 °C, 5 mM NAD+.

B1: Xylonolactonase (XLA) (Caulobacter vibrioides NA1000) (protein)
chain: MTAQVTCVWDLKATLGEGPIWHGDTLWFVDIKQRKIHNYHPATGERFSFDAPDQVTFLAPIVGATGFVVGLKTGIHRFHPATGFSLLLEVEDAALNNRPNDATVDAQGRLWFGTMHDGEENNSGSLYRMDLTGVARMDRDICITNGPCVSPDGKTFYHTDTLEKTIYAFDLAEDGLLSNKRVFVQFALGDDVYPDGSVVDSEGYLWTALWGGFGAVRFSPQGDAVTRIELPAPNVTKPCFGGPDLKTLYFTTARKGLSDETLAQYPLAGGVFAVPVDVAGQPQHEVRLV
notes: full-length gene in pET vector, N-terminal His tag, E. coli expression, Ni-TED and size exclusion
B1: in the series “purified protein [1]”, the Km (as a rule, the substrate concentration at which the rate is half of its maximum) was 450 µM; the Vmax (as a rule, the rate approached at saturating substrate) was found to be 944 µmol/min/mg; the kcat (in general, the number of substrate molecules converted per active site and unit of time at saturation) came to 497 s⁻¹; the kcat/Km (in general, the turnover number divided by the Michaelis constant) was found to be 1.1e+06 M⁻¹ s⁻¹.

B2: D-xylose dehydrogenase (XDH) (Caulobacter vibrioides NA1000) (protein)
chain: MSSAIYPSLKGKRVVITGGGSGIGAGLTAGFARQGAEVIFLDIADEDSRALEAELAGSPIPPVYKRCDLMNLEAIKAVFAEIGDVDVLVNNAGNDDRHKLADVTGAYWDERINVNLRHMLFCTQAVAPGMKKRGGGAVINFGSISWHLGLEDLVLYETAKAGIEGMTRALARELGPDDIRVTCVVPGNVKTKRQEKWYTPEGEAQIVAAQCLKGRIVPENVAALVLFLASDDASLCTGHEYWIDAGWR
notes: as for B1
In the case of B2, in “purified protein [2]” (co-substrate D-xylose), the Km stood at 160 µM, the maximum rate (Vmax) was 120 µmol/min/mg, the kcat is 57 s⁻¹ and the kcat/Km came out at 356000 M⁻¹ s⁻¹. The Km in series [3] was found to be 170 µM.

B3: α-Ketoglutarate semialdehyde dehydrogenase (KGSADH) (Caulobacter vibrioides NA1000) (protein)
chain: MTDTLRHYIGGERVAADAPAESLNPSNTNDVVAKVPMGGQAEVDAAVDAARKAFPAWADASPEVRSDLLDKVGSTIIARSADIGRLLAREEGKTLAEGIGETVRAGRIFKYFAGEALRRHGQNLESTRPGVEIQTYRQAVGVYGLITPWNFPIAIPAWKAAPALAFGNTVVIKPAGPTPATANVLADIMAECGAPAGVFNMLFGRGSMGDALIKHKDVDGVSFTGSQGVGAQVAAAAVARQARVQLEMGGKNPLIVLDDADLERAVAIALDGSFFATGQRCTASSRLIVQDGIHDKFVALLAEKVAALRVGDALDPNTQIGPAVSEDQMETSYRYIDIAASEGGRVVTGGDRIKLDNPGWYVRPTLIADTQAGMRINNEEVFGPVASTIRVKSYEEALEIANGVEFGLSAGIATTSLKHARHFQRYARAGMTMVNLATAGVDYHVPFGGTKSSSYGAREQGFAAVEFFTQTKTSYSWS
notes: as for B1
B3: the Km in “purified protein [2]” (co-substrate KGSA) amounted to 600 µM; in “purified protein [4]” it was 20 µM; in “purified protein [5]”, 20 µM; in “purified protein [6]”, 400 µM; in the series “purified protein [7]”, 2510 µM. Also, the Vmax in “purified protein [2]” (co-substrate KGSA) and in the series “purified protein [5]” was 49 µmol/min/mg in each case. For the same protein, the kcat in the series “purified protein [2]” (co-substrate KGSA) and in “purified protein [5]” was 41 s⁻¹ in each case. Moreover, the figures for the kcat/Km in the series “purified protein [2]” (co-substrate KGSA) and in the series “purified protein [5]” were 68000 M⁻¹ s⁻¹ and 2.05e+06 M⁻¹ s⁻¹, respectively.

B4: 2-Keto-3-deoxy-D-xylonate dehydratase (KDXD) (Caulobacter vibrioides NA1000) (protein)
chain: MGVSEFLPEDWKAATLLGRIDFGEGPTPVLVRGGRVEDVSKIAPTVADLMNAFQPGAVIPRGEDKGPLEALDIRPVWEDPDGAAPVKLLAPVDLQCLKAAGVTFAVSTLERVIEERARGDAGEALKIRTLLAERMGGDLKSVEPGSQGAQRLKDALIADGLWSQYLEVAIGPDAEIFTKGPTLSSMGWGDQVGVRYDSHWNNPEPEVVLLCDGSGLIRGAALGNDVNLRDFEGRSALLLSKAKDNNASCAIGPFFRLFDETFGLDDVRSAEVELKITGRDNFVLDGKSNMSLISRDPAVLAGQAYGKQHQYPDGFALFLGTMFAPIQDRDTPGQGFTHKVGDRVRVSTPKLGVLENEVTTCDKAKPWTFGISALIRNLAGRGLL
notes: as for B1
Take B4: in “purified protein [8]”, the Michaelis-Menten constant (Km) was 210 µM, the Vmax stood at 107 µmol/min/mg, the kcat was determined as 74 s⁻¹ and the specificity constant (kcat/Km) was determined as 352000 M⁻¹ s⁻¹.
